# Test results published in the DeepSol protein solubility set.
# Experiment: soluble on expression in E. coli; label from the status in PepcDB or PDB records
row,Sequence,soluble on expression in E. coli
1,SLPTIIGLAAVARSGKDTVASMLMEHPEVATYALADPLKAGCQAIFGLSDAEAWSDEAKEKTIDLWGLSPRQLFQRAGTEWLRDHNADHWLLRADRQLNHKPVEPRPVSATELASPSASIWLGVQAFWGLTEAQTWQDDLRAAEDPFWNITPKEMFAIVDRYLSRDFPSYVSTRSKRAISTPTRPLTNAAGKSIFIIKDIRYENEAAFWRSHNGVIWHITRNNAIKVQSHSSEDGIEFRNGDISIENNDTIEELRKKVESAWSCVRVD,soluble
2,SADAFSLQRVLETFRSSLSENKEVYIKYYIAGWQELVSFMNSLGNVFSFISKDVVSKIQILENFLSGENGSNYVTIQSMVKYELENDLVDLTKRGSHPESGCRTLLRLHRALRWLELFLERLRTSTEDSKTSVMCSDAYNESLANHHPWLIRKAVGVAFCALPGRETFFDVMNAGDHTQVVALLGESLPLIAEVYQITEDLYAKNNLLELP,soluble
3,MGSDKIHHHHHHHILNKKSYKNGYDNISDTDSVYFNGVEKYARFADFPVQINIMQKFDYTLDQLMLRDDYEISLEEWSSILFQIIFALAVAQKEYSFAHNDIHSDNVMFSNTKEPYIYYHINDTIYKVPTFNRVAKLIDFARGTFKVDGKWYISDVFENGGEADGQYEYDLNDFKPNHSFDLARLASSIIDNVNVPEIEDILRTWIKTTSGYDVMEDKDTFDIYIKIAKECFNAVPTKVIKHKLFQQFKITKKQKPNNTYVYYY,not soluble
4,GPGSMLILLFFSPEMLRRTLSRCFSADAIGPVHPDVMWGYMDARYAGPGWVSWIKQLPVETLTMQGGTSMTNMNDRTGVIADPEDPRHPIALIQWGPMNHYDGAFMQLSYGDYGPISQGSRLMQVLYDNYLEPFSMNRVCAQLYFYQKVPNNYHESVEASAEYIGQTASLIGQVLVGMGSVIMEGVTVKGDTNCVYIAEGVQVLENTCIVSDAPTDLLAYQRHEAINPYQQWDGMDGVCRIMQNTIIEPNCFLDSCSIGPFNRIGHNTKIMKGVTTGTMVHILPGSVVTKDTKIGDGELWGGAPAVKIGKVSKFEWKRPYFASLLHRESVVESYRNMSRYGDQVVHFQDKMGKLDTLMLQYEKDVPASVKAKIKEFVQGREPFHHMLTRITQGWSPANRPDDKNYNLCPPLPGVKLFAEHNNDSSDSDLHGTYMDITNIFNDFRW,not soluble
5,MFEDLLQTKRLIKSYYYYPKLVLVINIAEYLYSKGRDVCIFNFDKIKWEYYPYNLNFHMKCNERSENIIFEAEDESEIPNNFSLVTSIKKLNLGIPQSEIQKLDQNLFKINIDNKIYLFRIIEGKIVEEKIKGLSEEIINILREYNELSLKEIVDILYHKTNSSRDNIRKEIYFLKDIGVIEIKNGKVLLNNNSWLKR,soluble
6,MRGSHHHHHHTDPALRATIWVDADACPNVIKEILYRAAERMQMPLVLVANQSLRVPPSRFIRTLRVAAGFDVADNEIVRQCEAGDLVITADIPLAAEAIEKGAAALNPRGERYTPATIRERLTMRDFMDTLRASGIQTGGPDSLSQRDRQAFAAELEKWWLEVQRSRGGLCGR,soluble
7,MKRYTVKDIEALLPKLGADDPRWEMLRQDERKSVQALLARFERQKARRHAIEQRWEELMRYERELYAAGVRRIAGIDEAGRGPLAGPVVAAAVILPKDAYLPGLDDSKRLTPEKREALFAQIEACAVAIGIGIVSAAEIDERNIYEATRQAMAKAVNALSPPPEHLLVDAMAVPCPLPQQRLIKGDANSASIAAASVIAKVTRDRWMKELDRRYPQYGFARHMGYGTPEHFEAIRRYGVTPEHRRSFAPVREVLKASEQL,soluble
8,DHFFELMGTTTEQAYELVDLHPAYRLFPEGSPALDVDSGVGNVATLFDALHPGAGKKVQRYLRNATDVYHLSLRHFLYTTFSNPRDFLRADILRRLPYLARLLSSSLDTWVRNRFPHPILRQILSYPAVFLSTQPTQAPALYSLMSHTDLVEGVHYPRGGFAAIMSAIEKIDREAGVEFYYEHEVTDITIESGRACGITAAGPHGTSTFNADVVVSAADLHHTETRLLPPHLRSYPENYWSKRNPGLGTVLIMLGVRGHLPELAHHNLLFSKDWDPDFAAVYSGPHPSRPLGASQSIYISKTSATDSDAAPEGHENLFILVPVPANDALGHGNTYHHTASPRVEEITRATIAQIATWTGISDLDERIVVTKTIGPADFSERYHAWSSGAIGPAHTLMQSAFFRGKNMASKVKGLYYAGGTTVPGVGVPMCLISAENVITRIKAE,not soluble
9,SIRLPAHLRLQPIYWSRDDVAQWLKWAENEFSLRPIDSNTFEMNGKALLLLTKEDFRYRSPHSGDELYELLQHILKQRDHHHHHHHRHD,soluble
10,MEQDINNQTGKKIFLNEECFLELDKLPQHVSVLGVSGFGKSNILLHFLKYAIDNDHPLIFVNGKGDKELITQFEHYQTSAKQLSPEDGFDTVKLVALKNTSAKIWSLDDRIATIKYNPFK,soluble
11,MINDIKILGVGGSPRKNGNTDVLLDSFLKGAESAGVETKKVLLRDYSIEPCIGCERCRKTGTCTRFHDGMSLLYPEIEAAKGLTLGSPTYNYNVTALMKAFIDRLYPYYNFTNVRPRRYSSKLAGQGRKAIVFSVCEQLEIEEMGFTLGALGMPLEALGYEIVEKFPVTGYFDRGAVSRDEELLRKTFEAGKKMAEALHLEHHHHHH,not soluble
12,SNAMKYTVYLFDFDYTLADSSRGIVTCFRSVLERHGYTGITDDMIKRTIGKTLEESFSILTGITDADQLESFRQEYSKEADIYMNANTILFPDTLPTLTHLKKQGIRIGIISTKYRFRILSFLRNHMPDDWFDIIIGGEDVTHHKPDPEGLLLAIDRLKACPEEVLYIGDSTVDAGTAAAAGVSFTGVTSGMTTAQEFQAYPYDRIISTLGQLISVPEDKSGCPL,soluble
13,MRGSHHHHHHGKQLTILGSTGSIGCSTLDVVRHNPEHFRVVALVAGKNVTRMVEQCLEFSPRYAVMDDEASAKLLKTMLQQQGSRTEVLSGQQAACDMAALEDVDQVMAAIVGAAGLLPTLAAIRAGKTILLANKESLVTCGRLFMDAVKQSKAQLLPVDSEHNAIFQSLPQPIQHNLGYADLEQNGVVSILLTGSGGPFRETPLRDLATMTPDQACRHPNWSMGRKISVDSATMMNKGLEYIEARWLFNASASQMEVLIHPQSVIHSMVRYQDGSVLAQLGEPDMRTPIAHTMAWPNRVNSGVKPLDFCKLSALTFAAPDYDRYPCLKLAMEAFEQGQAATTALNAANEITVAAFLAQQIRFTDIAALNLSVLEKMDMREPQCVDDVLSVDANAREVARKEVMRLASSACDLGTPGRPAAKLN,soluble
14,MMSKQPTSKRQWRDGAAPSAKKTAKPFKSKARPKDETGKTASQPYGQKASDGIKPQNVPKQRAAKAKKLVVRNPNQKIMEHARDLKERRSDLSRMEPERLQKVLAASGVGSRREMEEWITNGWITVNGKTAQLGDKVTPDDHVTVKGSIIKLKWADRLPRIILYYKQEGEIVSRDDPQGRVSIFDRLPQAASSRWVAIGRLDINTSGLLILTTSGELVQRFAHPSFEVEREYAVRVLGGLTGEQMRVLTEEGVMLEDGLAKVERIREQGGEGANKWYNVVIKEGRNREVRRIFESQGLTVSRLVRIGFGPIGLPNRLKRGQFYELNPAEVANIIKWADMLLPGERRRKKA,not soluble
15,MSDSASNTENSIQIEIFPSRILSPETAQKLLVELSQVDGILRVMIQGNRLPEKVGYGPGTGEKVEHPLRKPIQIGGQVIELRVSVGRIRLEVLNAEVKENVRAVCEKMLPFSFEFREGHFLRRKPTVTDYAKLGPEADPRLLGMVDPKAKINQLVFILEHHHHHH,not soluble
16,MSLKFHSPSCFLSAGEPSGDTLGSDLLRNIKELNPNIHCFGVGGPLMRKEGLEPLIRMEEFQVSGFLEVFCAVFSLYKKYRKLYKAILKENPETVFCIDFPDFHFFLIRKLRKCGYRGKIIHYVCPSIWAWRPNRKKILEKHLDTLLLILPFEKEIFKDSPLKTIYLGHPLVKTIANFQDCNAWKQQLEISDQPSVALFPGSRPGDIFRNLQVQARAFRSSSLAKSHQLLVSSCNPKYDKKILELLDKEGCHNNKIVPSKFRYQLMRDCDCALAKCGTIVLEAALNQTPTIVTCLLRPFDTFLAKYIFKIFIPAYSLPNIITGSVIFPEFIGGKHDFSPEEVAAAIDILANPIGKEKQKYACQQLLKTMTENVITPKECLQAIYAQKNREGHHHHHH,not soluble
17,MAADPASAPVLLHPRRAMVLAAGLGLRMRPLTETMPKPLVAIHDKPLIDWALDHLATAGVEEAVVNLHHLPEMLEAHLQGRATPRIHFSDETGQRLETGGGVRKALPHLGDDPFYVLNSDVLWLNGTIPALDRLAAAWDPETMDALLLLHPLAAAHGYEGLGDFDLDPLGRPTRRAEMHMAPFIFTGVQILHPRLFDDAPEGPFSLNVLYDRALSEDRLAAIVHDGEWYHVGTPQALVHTETILGQHSSMSDQLEHHHHHH,not soluble
18,MNHLLSMEHLSTDQIYKLIQKASQFKSGERQLPNFEGKYVANLFFENSTRTKCSFEMAELKLGLKTISFETSTSSVSKGESLYDTCKTLESIGCDLLVIRHPFNNYYEKLANINIPIANAGDGSGQHPTQSLLDLMTIYEEYGYFEGLNVLICGDIKNSRVARSNYHSLKALGANVMFNSPNAWIDDSLEAPYVNIDDVIETVDIVMLLRIQHERHGLAEETRFAADDYHQKHGLNEVRYNKLQEHAIVMHPAPVNRGVEIQSDLVEASKSRIFKQMENGVYLRMAVIDELLK,not soluble
19,MPQFETHRLVKHSPDRMYDLVADVEKYPQFLPLCEALSVRSRKERDGKVLLVADMTVGYKAIRETFTTQVLLNPAERAIDVKYIDGPFRYLDNRWRFEAAENGGTTIHFFIDYEFKNRLLGAVMGSMFDRAFRMFAEAFETRADKIYTDPALEHHHHHH,soluble
20,GMNISNLINADVDEKGFVSDKLRDNFFQIVRNRPENRTCFDCESRNPTWLSLSFAVFICLNCSSDHRKMGVHISFVRSSDLDKFTPIQLVRMDIGGNGRARNYFKQVLGVNFSPKTKEYASSICGRQYKQILDSEISE,soluble
21,MGSDKIHHHHHHMTDRSAVPVDSPAGSTRTVILEKALELFAETGFNGVSMRRIAQEVGINPATLYHHFVHKEDLYEQVLRFAYAEQAAHFSALVSIEGTPQSQLGEFIREFAFYIAKDQHFFRLVKREQLEGNSERLKMLVDLLFGKQYEAMVRSVGRVTQAFDTHMLVTSLLGLVLHHYETRHMRQFFVEYMPSQDDPEVVADHCCRLFFFGIQGAGAAQEVPYRSEQSLLSADGEHSRDGAG,not soluble
22,MTKASDAVKGIINSNNIYTLLLNTGLVNYTKLAREIKSQVDFLTGKKVKINTIVKALTNIEIKSKPKDILLILKQSILTLEYNYKEITTENRNKIPDDAILVIKESNGYSAIIKTTDGNSLVIAKILLPPGSCTTAGITLLITEFLEINGVSVRNIYRLSKEIWIIVDSESAGKAADALNRLLYKSNDRESSPVSLVD,not soluble
23,MAHILLIPANSPFVVTGALSAKVSTVEEFAQKHRAFAIFNAGFFDPANQKSTSYVVVTGQMVADPKDNERLVNNPQLKPYLNLIFNRSEFRRYLCGQTTRYDITLHNESPPANCRLVDAIGAGPRLLPKLTSVPEGFVDNAKGRDALLSKQLNARTAVGITSEGSIILVMVAQKPSKPKNSGISLVQLADLMKKLGASAAMNLDGGSSSSLYYNGKAFYGKFDLQGNPIKRKVKSVLLVQENVRNLEHHHHHH,not soluble
24,MAQGFKITYTDQACLLDIQDPQNKESQSFHYALVPRGVEAENIPADYTVIETPIRSVICMTSLQLSNFIKLEELDAVVGITSTRHLFNKKINDRLKDGSIHKIGIEGNFDNEVIMSVNPDLILISPFKRGGYDALKEVGIPLMPHLGYKEMTPLGQAEWIKFVGLLLGREDKANKQFAAIKKRYNELKELTGLEHHHHHH,not soluble
25,MGHHHHHHSHMEKRKPTIQNIEVSDHTAELSLRVDADILDFQGHFSHFPLLPGVTQIDWALFYAVQYLNTPKVFKGMEVIKFQEPILPNADVCLSLSWDNEREKLTFKYTSKNGETLVTHSSGKMKLGESRE,soluble
